The record followed here is the nanobody polyreactivity screen of Harvey et al. (2022).

The data set is described as follows: yeast display, Sf9 membrane polyspecificity reagent, FACS + sequencing; frameworks hold sequencing errors. In outline: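 After 36–48 hours of galactose induction, yeast (Saccharomyces cerevisiae BJ5465) displaying a synthetic nanobody library were stained at 4 °C for 1 hour with 10% biotinylated, detergent-solubilized Sf9 membrane reagent. Streptavidin microbeads enriched the stained cells before FACS sorting into low and high (top ~1%) gates on anti-HA and streptavidin fluorescence. Each clone's polyreactivity label reflects its gate of origin.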
In the case of “QVQLEESGGGLVQAGGSLRLSCAASGRTFGTYVMGWNRQATGKHRELVAAISRSGGGTYYADSVKGRFTISRDNEKNTVYLQMNSLKPEDTAVYYCADRRVVYRYYWYSAYDYWGQGTQVTVSS”, the “polyreactivity (PSR sort gate)” value is listed as “high polyreactivity”.

With “QVQLEESGGGLVQAGGSLRLSCAASGRTFKYYSMGWYRPAPGKERELVAAIRSRTGSTYYADSVKGRFTISRDNAKNTVYLQMNSLKPEDTAVYYCAAQPGSYYGPRWYYDDDYWGQGTQVTVSS”, the “polyreactivity (PSR sort gate)” value is “high polyreactivity”.

Take “QVQLEESGGGLVQAGGSLRLSCAASGRTFRSYTMGWYRQAPGKERELGAAISYNGGSTYYADSVNGRFTISRDYAKNTVYLQMNSLKPEDTSVYYCAVYSIYGFYYWGQGTQVTVSS”: the “polyreactivity (PSR sort gate)” value is “high polyreactivity”.

For “QVQLEESGGGLVQAGGSLRLSCAASGRTFSRYAMGWYRQAPGKERELVAAIRGNSGNTYYADSVKGRFTISRDNAKNTVYLQMNSLKPEDTAVYYCAKPFNIWGQGTQVTVSS”, the “polyreactivity (PSR sort gate)” value is recorded as “high polyreactivity”.

Turning to “QVQLEESGGGLVQAGGSLRLSCAASGRTFTHYAMGWYRQAPGRERELVAGITRSGGITYYADSVKGRFTISRDNANNTVYLQMNSLKPEDTAVYYCNAGFHGLAYFLKPEYDYWGQGTQVTVSS”, the “polyreactivity (PSR sort gate)” value is given as “low polyreactivity”.

As to “QVQLEESGGGLVQAGGSLRLSCAASGRTFYRYAMGWYRQAPGKERELVAAITWSGGSTYYADSVKGRFTTSRDNAKNTVYLQMNSLKPEDTAVYYCARRLYPYRPTAYDYWGQGTQVTVSS”, the “polyreactivity (PSR sort gate)” value is on record as “low polyreactivity”.

For the sequence “QVQLEESGGGLVQAGGSLRLSCAASGRTFYTNAMGWYRQAPGKERELVAAISGRGSTYYADSVKGRFTISRDNAKNTVYLQMNSLKPEDTAVYYCAALLPGRSSSDYWGQGTLVTVSS”, the “polyreactivity (PSR sort gate)” value is “high polyreactivity”.

Turning to “QVQLEESGGGLVQAGGSLRLSCAASGRTFYVYTMGWYRQAPRKERELFAGISYSGGSTYYADSVKGRFTISRDTAKKTVYLQKYSLKPEDTAVYYCNAELYFPYFDGKTRHGGYWGQGSQVTVSS”, the “polyreactivity (PSR sort gate)” value is reported as “low polyreactivity”.

As for “QVQLEESGGGLVQAGGSLRLSCAASGRTLSHYAKGWYRKAPGKERELVAAITRSGGSTYYADSVKGRFTISRDNAKNTVYLQMNRLKPEDTAVYYWNKTLYTSYDFWGQGTQVTVSS”, the “polyreactivity (PSR sort gate)” value is given as “low polyreactivity”.

On to “QVQLEESGGGLVQAGGSLRLSCAASGSIFALYTIGWSRQAPRKERELVAAISSRGGSTYYADSVKGRFTISRDNAKNTVYLQMNSLKPEDTAVYYCNAVVRESAYNFDYWGQGTQVTVSS”, for which the “polyreactivity (PSR sort gate)” value was “high polyreactivity”.

For the sequence “QVQLEESGGGLVQAGGSLRLSCAASGSIFAVYAMGWYRHAPGKERELVAAIRSGSRTYYADSVKGRFTISRDNAKNTVYLQMNSLKPEDTAVYYCATTYGTPRYDYWGQGTQVTVSS”, the “polyreactivity (PSR sort gate)” value is reported as “high polyreactivity”.

Consider “QVQLEESGGGLVQAGGSLRLSCAASGSIFGANAMAWYRQAPGKERDLVAAITTSGGSTFYADSVKGRFTISRDNAKNTVYLQMNCLKPEDNAVYYCAAEWVYSIKSVYIYEMYYWGQGTQVTVSS”, for which the “polyreactivity (PSR sort gate)” value is reported as “low polyreactivity”.

Take “QVQLEESGGGLVQAGGSLRLSCAASGSIFGQYAMGWYRQAPGKERELVAAISTRGGSTRYADSVKGRFTISRDNAKNTVYLQMNSLTPEGTAVYYCAARVPYIRHLAVDYWGQGTQVTVSS”: the “polyreactivity (PSR sort gate)” value is “high polyreactivity”.

For “QVQLEESGGGLVQAGGSLRLSCAASGSIFGTYAMGWYRQAPGKEREFVAAISWSDGSTYYADSVKGRFTISRDNAKNTVYLQMNSLKPEDTAVYYCAVRRVGSIYIDRYIYVVADYDYWGQGTQVTVSS”, the “polyreactivity (PSR sort gate)” value was “low polyreactivity”.

For “QVQLEESGGGLVQAGGSLRLSCAASGSIFGYYAMGWYRQAPGKERELVAAITTGGSTSYADSVKGRFTISRDNAKNTVYLQMNSLKPEDTAVYYCNARFKRLFGRADDYWGQGTQVTVSS”, the “polyreactivity (PSR sort gate)” value is “low polyreactivity”.

Regarding “QVQLEESGGGLVQAGGSLRLSCAASGSIFIRNAMGWYRQAPGKERELVAAISTIGGRTYYADSVKGRFTISRDNAKNTVYLQMNSQKPEDTAVYYCAAEQGTPSTNWFDYWGQGTQVTVSS”, the “polyreactivity (PSR sort gate)” value was “low polyreactivity”.

In the case of “QVQLEESGGGLVQAGGSLRLSCAASGSIFIYYAMGWYRQAPGKERELVAGINFNGGSTYYADSVKVRFTISRDNAKNTVYLQMNSLKPEDTAVYYCAADELWWTYWDFVTNWYQRDYWGQGTQVTVSS”, the “polyreactivity (PSR sort gate)” value is “low polyreactivity”.

For “QVQLEESGGGLVQAGGSLRLSCAASGSIFNVNTIGWYRQAPGKEREFVAAISYSGGSTYYADSVKGRFTISRDNAKNTVYLQMNSLKAEDTALYYCNVSPTTSGDGGGYDSWGQGTQVTVSS”, the “polyreactivity (PSR sort gate)” value was “low polyreactivity”.

Take “QVQLEESGGGLVQAGGSLRLSCAASGSIFRGYAMGWYRQAPGKERELVAAINWSGSSTYYADSVKGRFTISRDNAKNTVYLQMNSPKPEDTAVYYCARVYYNRNLGGDYWGQGTQVTVSS”: the “polyreactivity (PSR sort gate)” value is recorded as “low polyreactivity”.

On to “QVQLEESGGGLVQAGGSLRLSCAASGSIFRVYAMGWYRQAPGKERELVAAISQSADSTYYADSVKGRFTILRDNAKNTVYFQMNSLKPEDTAVYYCAAEYPYIYRFDYWGQGTQVTVSS”, for which the “polyreactivity (PSR sort gate)” value is given as “low polyreactivity”.

For “QVQLEESGGGLVQAGGSLRLSCAASGSIFTVNAMGWYRQATGKQMELVAAISQSGGSTYYADSVKGRFTISRDNAKNTVYLQMNSLKPEDTAVYYCNALLFIVHGDKSQTMDYWGQGTQVTGSS”, the “polyreactivity (PSR sort gate)” value is reported as “low polyreactivity”.

As to “QVQLEESGGGLVQAGGSLRLSCAASGSIFVPYAMGWYRQAPGKERELVASISWRGGSTYYADSVKGRFTISRDNAKNTVYLQMNSLKPEDTAVYYCAAQKRGSPGYRRDYWGQGTQVTVSS”, the “polyreactivity (PSR sort gate)” value is “high polyreactivity”.

Regarding “QVQLEESGGGLVQAGGSLRLSCAASGSIFWLYAMGWYRQAPGKEREFVAAITTSGSSTRYADSVKGRFTISRDNAKNTVYVQMNSLKPEDTAVYYCAARNRTFFQPTYYYWGQGTQVTVSS”, the “polyreactivity (PSR sort gate)” value is “high polyreactivity”.

For the sequence “QVQLEESGGGLVQAGGSLRLSCAASGSIFYKYAMGWYRQAPGKEREFVATIRYSGGSTYYADSVKGRFTISRDNAKNTVYLQMNILKPEDTAVFYCAADAYSYGYDSWGQGTQVTVSS”, the “polyreactivity (PSR sort gate)” value is reported as “high polyreactivity”.

For “QVQLEESGGGLVQAGGSLRLSCAASGSTFAVYAMGWYRQAPGKERELVAAINRSGDSTYYADSVKGRFTISRDNAKNTVYLQMNSLKPEDTAVYYCAAYQRVRSGVDMYSWGQGTQVTVSS”, the “polyreactivity (PSR sort gate)” value was “high polyreactivity”.

Consider “QVQLEESGGGLVQAGGSLRLSCAASGSTFDTYAMGWYRPAPGKERELVAGITRRGGRTYYADSVKGRFTISRDTAKNTVYLQKYSLKPEDTAVYYCNAVPQRPVGKRDHWGQGTQVTVSS”, for which the “polyreactivity (PSR sort gate)” value was “high polyreactivity”.

As to “QVQLEESGGGLVQAGGSLRLSCAASGSTFEYKAKGWYRQAPGKERELVASSTNYADSVKGRFTISRDNAKNTVYLQMNSLKPEDTAVYYCAREQGVNRNHDYWGQGTQVTVSS”, the “polyreactivity (PSR sort gate)” value is reported as “low polyreactivity”.

Consider “QVQLEESGGGLVQAGGSLRLSCAASGSTFFIYAMGWYRQAPGKEREMVAAISGSGGTTYYADSVKGRFTISRDNAKNTVYLQMNSLKPEDTAVYYCAARTFSAFWRGGYDYWGQGTQVTVSS”, for which the “polyreactivity (PSR sort gate)” value is “low polyreactivity”.

Consider “QVQLEESGGGLVQAGGSLRLSCAASGSTFHGYAMGWYRQEPGKERELVAAITSGDSTNYADSVKGRFTISRDNAKNTVYLQMNSLKPEDTAVYYCNAEGSSVLTGYWGYPPYWDTYDYWGQGTQVTVSS”, for which the “polyreactivity (PSR sort gate)” value was “low polyreactivity”.

For “QVQLEESGGGLVQAGGSLRLSCAASGSTFKYYAMGWYRQAHGKERELVAAISRRGGSTYYADSVKGRFTISRDNAKNTVYLQMNSLKPEDTAVYYCAADIIRPVTVDYWGQGTQVTVSS”, the “polyreactivity (PSR sort gate)” value is reported as “high polyreactivity”.

For the sequence “QVQLEESGGGLVQAGGSLRLSCAASGSTFQENAMGWYRQAPGKEREFVAAISGSGGSTYYADSVKGRFTISRDNAKNTVYLQMNSLKPEDTAVYYCAARHYFRSRRRYDYWGQGTQVTVSS”, the “polyreactivity (PSR sort gate)” value is listed as “low polyreactivity”.

Consider “QVQLEESGGGLVQAGGSLRLSCAASGSTFRYYAMGWYRQAPGKERELVAAISRSGGRTYYADSVKGRFTISRDNAKNTVYLQMNSLKPEDTAVYYCATRGDGSSWGDYDYWGQGTQVTVSS”, for which the “polyreactivity (PSR sort gate)” value was “high polyreactivity”.

Take “QVQLEESGGGLVQAGGSLRLSCAASGSTFSYNTMGWYRQAPGKERELVASITWSGGSTNYADSVKGRFTISRDNAKNTVYLQMNSLKPEDTAVYYCAKDYISVWNVRASDYYWYDYWGQGTQVTVSS”: the “polyreactivity (PSR sort gate)” value is recorded as “low polyreactivity”.

“QVQLEESGGGLVQAGGSLRLSCAASGSTFVYYAMGWYRQSPGKERELVAAISRGGGSTYYADSVKGRFTISRDNAKNTVYLQMNSLKPEDTAVYYCAAVAGYRYYWGQGTQVTVSS”: the “polyreactivity (PSR sort gate)” value is recorded as “high polyreactivity”.

In the case of “QVQLEESGGGLVQAGGSLRLSCAASGSTFVYYPMGWYRQATGKERELVAVISDDGGTYYADSVKGRFTISRDNAKNTVYLQMNSLKPEDTAVFYCAKDYYGGAFYWYNDRSGDYWGQGTQVTVSS”, the “polyreactivity (PSR sort gate)” value is “low polyreactivity”.

For “QVQLEESGGGLVQAGGSLRLSCAASGSTYACYYMGWYIQAPGTEREFVAAIDYGGGSTYADSVQGRFTISRDNAKITVYLQMNSLKPEDTAVYYCYADNWVYLYVYWGQGTQVTVSS”, the “polyreactivity (PSR sort gate)” value is “low polyreactivity”.

As for “QVQLEESGGGLVQAGGSLRLSCAASGYIFYEYAMGWYRQAPGKERELVAAISRRGGRTYYADSVKGRFTISRDNAKNTVYLQMHSLKPEDTAVYYCAASVRFGDYEYWGQGTQVTVSS”, the “polyreactivity (PSR sort gate)” value is “high polyreactivity”.

“QVQLEESGGGLVQAGGSLRLSCAASGYTFFTNVMGWYRQAPGKERELVATITTGGSTYADSVKGRFTISRDNAKNTVYLQMNSLKPEDTAVYYCAVDALTGAWLGGYPYWADGYDYWGQGTQVTVSS”: the “polyreactivity (PSR sort gate)” value is “low polyreactivity”.

For the sequence “QVQLEESGGGLVQAGGSLRLSCAASGYTFGLYAMGWYRQAPRKERELVAAISSDASTNYADSVKGRFTISRDNAKNTVYLQMNSLKPEDTAVYYCAAAVKRGYAQSFISDGYGYWGQGTQVTVSS”, the “polyreactivity (PSR sort gate)” value is on record as “low polyreactivity”.

Consider “QVQLEESGGGLVQAGGSLRLSCAASVSIFGVNVMGWYRQAPGKERELVAAISSGGSTNYADSVKGRFTISGDNEKKTVYLLMISLKPDDTAVYFCIAGLGRLYDYWGQGTQVTVSS”, for which the “polyreactivity (PSR sort gate)” value is “low polyreactivity”.
